To fix the notation:
B4: human BTN3A1 (CD277) expressed on the cell surface (BTN-K32 aAPCs: K562 cells expressing human CD32 and BTN3A1; BMDCs of BTN3A1 knock-in mice) (receptor)
chain: not shown
notes: also called BTNA31-K32; BTN3-K32

The target in experiment [1] is T1, CD44 of OKT3-activated primary αβ T cells (human, UniProt P16070 21-742).
T1 construct: whole, on cells
Kind of experiment: co-immunoprecipitation from activated primary αβ T cells after DTSSP crosslinking, LC-MS/MS. On the procedure:
(§1) Proteins were eluted with LDS sample buffer supplemented with DTT by heating at 70° C. for 10 minutes. Eluted fractions from BTN3A1-Fc and control were run into an SDS-gel for 0.5 cm, and the entire gel lanes were excised and digested with trypsin. Liquid chromatography tandem mass spectrometry (LC-MS/MS) analysis of tryptic digests was performed by the Wistar Proteomics and Metabolomics Facility using a Q Exactive HF mass spectrometer (Thermo Scientific). MS/MS spectra generated from the LC-MS/MS runs were searched using full tryptic specificity against the UniProt human database (www.uniprot.org; Oct. 1, 2017) using the MaxQuant 1.6.0.16 program. Protein quantitation was based on intensity and MS/MS count was determined from unique and razor peptides (J. Cox, M. Mann, MaxQuant enables high peptide identification rates, individualized p.p.b.-range mass accuracies and proteome-wide protein quantification. Nat Biotechnol 26, 1367-1372 (2008)). False discovery rates for protein and peptide were set at 1%. Protein tables were filtered to remove reverse database entries, common contaminants, and proteins identified by a single peptide.
(§2) To determine the mechanism by which BTN3A1 (also referred to herein as CD277) inhibits αβ T cell activity, the binding of BTN3A1 to potential immunosuppressive receptors was ruled out by comparing the binding of recombinant NKG2A, GPR174, NRP1, NRP2, PD-1, CTLA4, TIM-3 and BTLA Fc proteins to MHC-I⁻CD32⁺ K562 artificial Antigen-Presenting Cells with BTN3A1 retrovirally expressed on the surface of the cell (BTN-K32 aAPCs) vs. mock-transduced aAPCs. Binding of BTN3A1 to these immunosuppressive receptors was not observed. BTN3A1-Fc proteins were then used to co-immunoprecipitate (co-IP) the binding partner(s) of BTN3A1 on OKT3-activated primary αβ T cells from three independent pull downs from three different donors.

The target of experiment [2] is T2, CD2 of OKT3-activated primary αβ T cells (human, UniProt P06729 25-351).
T2 construct: whole, on cells
T2 sequence (looked up): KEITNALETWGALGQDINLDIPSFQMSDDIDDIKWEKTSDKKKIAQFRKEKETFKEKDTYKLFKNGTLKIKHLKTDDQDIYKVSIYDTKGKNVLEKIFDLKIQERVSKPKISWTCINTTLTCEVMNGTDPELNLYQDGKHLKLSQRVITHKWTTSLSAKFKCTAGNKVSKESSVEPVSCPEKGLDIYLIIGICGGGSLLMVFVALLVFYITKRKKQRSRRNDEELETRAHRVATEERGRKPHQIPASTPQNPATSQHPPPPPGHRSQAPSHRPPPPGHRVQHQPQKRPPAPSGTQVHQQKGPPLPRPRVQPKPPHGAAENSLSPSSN
The experiment is described as above. On the procedure:
as §1, §2

Experiment [3] addresses T3, CD5 of OKT3-activated primary αβ T cells (human, UniProt P06127 25-495).
T3 construct: whole, on cells
T3 sequence (looked up): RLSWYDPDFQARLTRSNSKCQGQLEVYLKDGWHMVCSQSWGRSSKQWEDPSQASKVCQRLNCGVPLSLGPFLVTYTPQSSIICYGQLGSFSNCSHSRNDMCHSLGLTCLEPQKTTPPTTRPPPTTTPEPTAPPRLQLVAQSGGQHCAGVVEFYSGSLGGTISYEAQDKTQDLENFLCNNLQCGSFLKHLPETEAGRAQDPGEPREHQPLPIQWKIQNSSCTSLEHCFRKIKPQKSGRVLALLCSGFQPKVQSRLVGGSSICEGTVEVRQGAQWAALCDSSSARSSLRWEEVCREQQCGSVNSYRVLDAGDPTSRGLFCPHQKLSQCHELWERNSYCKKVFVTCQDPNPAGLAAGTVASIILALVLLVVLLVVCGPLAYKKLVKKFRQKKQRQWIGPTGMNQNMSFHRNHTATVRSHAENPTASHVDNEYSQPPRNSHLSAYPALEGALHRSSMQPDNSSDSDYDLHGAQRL
The experiment is described as above. The procedure:
as §1, §2

Experiment [4] addresses B4. Kind of experiment: binding of recombinant Fc proteins to BTN-K32 aAPCs vs. mock-transduced aAPCs.
Experiment [5] addresses B4. Kind of experiment: cell-based or functional assay.
Experiment [6] addresses T4, biotinylated human CD277 Fc fusion (human, UniProt O00481 30-254, limits assumed, biotinylated with EZ-Link Sulfo-NHS biotinylation reagent (sites not given)).
T4 construct: also called human CD277 Fc fusion antigen
In words: yeast display selection (MACS and FACS) for binders of biotinylated human CD277 Fc fusion.

In experiment [7] the target is T5, recombinant NRP2 Fc protein (UniProt O60462 23-864, limits assumed).
T5 construct: Construct not described
T5 sequence (looked up): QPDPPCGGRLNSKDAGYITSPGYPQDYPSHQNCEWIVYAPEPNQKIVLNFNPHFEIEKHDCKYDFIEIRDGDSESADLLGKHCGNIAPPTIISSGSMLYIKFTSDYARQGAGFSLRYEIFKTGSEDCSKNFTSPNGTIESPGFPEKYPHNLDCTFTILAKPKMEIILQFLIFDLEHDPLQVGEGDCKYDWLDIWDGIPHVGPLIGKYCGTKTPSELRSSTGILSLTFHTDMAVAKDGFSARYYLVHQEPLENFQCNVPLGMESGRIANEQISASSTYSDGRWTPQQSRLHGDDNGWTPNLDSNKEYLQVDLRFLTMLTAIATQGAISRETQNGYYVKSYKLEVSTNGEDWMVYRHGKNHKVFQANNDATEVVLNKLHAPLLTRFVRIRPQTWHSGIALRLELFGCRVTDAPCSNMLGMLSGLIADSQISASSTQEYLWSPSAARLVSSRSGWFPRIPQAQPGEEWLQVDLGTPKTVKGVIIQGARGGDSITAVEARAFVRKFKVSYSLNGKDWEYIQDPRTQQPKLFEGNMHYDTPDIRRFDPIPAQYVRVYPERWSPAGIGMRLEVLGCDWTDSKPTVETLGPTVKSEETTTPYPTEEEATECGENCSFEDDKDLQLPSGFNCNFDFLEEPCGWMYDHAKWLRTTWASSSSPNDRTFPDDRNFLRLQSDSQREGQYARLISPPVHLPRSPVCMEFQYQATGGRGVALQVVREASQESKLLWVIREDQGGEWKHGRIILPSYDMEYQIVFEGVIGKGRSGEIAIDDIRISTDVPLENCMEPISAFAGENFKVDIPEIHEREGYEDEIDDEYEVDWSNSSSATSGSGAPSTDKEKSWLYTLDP
Kind of experiment: binding of recombinant Fc proteins to BTN-K32 aAPCs vs. mock-transduced aAPCs.

The target in experiment [8] is T6, recombinant NRP1 Fc protein (UniProt O14786-2 22-644, limits assumed).
T6 construct: Construct not described
T6 sequence (looked up): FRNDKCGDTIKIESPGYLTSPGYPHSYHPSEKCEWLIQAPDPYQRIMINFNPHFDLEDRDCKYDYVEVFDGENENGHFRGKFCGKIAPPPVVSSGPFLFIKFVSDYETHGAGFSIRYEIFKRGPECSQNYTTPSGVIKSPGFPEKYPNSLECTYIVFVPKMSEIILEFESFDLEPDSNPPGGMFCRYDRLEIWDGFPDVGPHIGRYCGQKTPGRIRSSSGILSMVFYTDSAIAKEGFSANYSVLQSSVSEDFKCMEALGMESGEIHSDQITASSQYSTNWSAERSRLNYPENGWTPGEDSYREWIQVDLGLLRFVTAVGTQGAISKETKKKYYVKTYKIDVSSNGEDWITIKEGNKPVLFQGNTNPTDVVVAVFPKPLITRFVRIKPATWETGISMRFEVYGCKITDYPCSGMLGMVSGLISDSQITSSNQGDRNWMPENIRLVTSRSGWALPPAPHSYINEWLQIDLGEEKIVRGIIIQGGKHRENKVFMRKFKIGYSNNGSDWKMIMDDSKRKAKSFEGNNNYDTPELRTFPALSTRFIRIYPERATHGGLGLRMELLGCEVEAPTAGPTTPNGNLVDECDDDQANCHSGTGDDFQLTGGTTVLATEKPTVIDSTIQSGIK
The experiment is described as above.

Some results are limits rather than exact numbers.

T1 sequence (P16070 21-742): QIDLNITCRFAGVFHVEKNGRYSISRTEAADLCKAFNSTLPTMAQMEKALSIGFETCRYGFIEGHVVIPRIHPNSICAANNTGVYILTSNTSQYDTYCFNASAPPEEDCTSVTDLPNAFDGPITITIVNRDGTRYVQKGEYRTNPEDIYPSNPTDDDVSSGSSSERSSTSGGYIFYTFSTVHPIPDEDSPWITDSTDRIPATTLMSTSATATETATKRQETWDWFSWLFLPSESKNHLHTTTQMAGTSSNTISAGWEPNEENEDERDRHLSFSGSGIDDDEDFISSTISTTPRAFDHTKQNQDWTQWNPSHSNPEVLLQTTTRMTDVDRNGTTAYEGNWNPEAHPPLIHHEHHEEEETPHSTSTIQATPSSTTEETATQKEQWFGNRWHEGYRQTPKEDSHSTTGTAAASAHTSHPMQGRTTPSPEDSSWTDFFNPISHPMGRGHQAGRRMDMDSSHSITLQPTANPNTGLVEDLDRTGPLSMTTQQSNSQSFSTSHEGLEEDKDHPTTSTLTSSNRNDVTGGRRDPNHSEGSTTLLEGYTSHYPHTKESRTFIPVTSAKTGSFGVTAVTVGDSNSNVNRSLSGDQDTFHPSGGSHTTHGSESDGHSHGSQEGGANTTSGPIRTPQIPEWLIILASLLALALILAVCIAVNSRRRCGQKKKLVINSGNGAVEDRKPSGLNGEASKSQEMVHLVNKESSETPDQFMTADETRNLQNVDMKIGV

B1: BTN3A1-Fc fusion protein (R&D systems Cat #8539-BT-050) (Fc fusion)
chain: not shown
notes: Bought from R&D systems; also called BTN3A1-Fc proteins; CD277; not shown: Fc part of the bought fusion protein
Regarding B1, the binding result in experiment [1], in experiment [2] and in experiment [3] was “no binding (tested: 10 µg/ml BTN3A1-Fc)” throughout.

B2: recombinant NKG2A Fc protein (Fc fusion, not shown: a dimerising Fc or GST)
chain: not shown
notes: Construct not described
In the case of B2, the binding result in experiment [4] was “no binding”.

B3: anti-CD277 monoclonal antibody mAb1 (antibody, human IgG1, kappa, N297A)
heavy: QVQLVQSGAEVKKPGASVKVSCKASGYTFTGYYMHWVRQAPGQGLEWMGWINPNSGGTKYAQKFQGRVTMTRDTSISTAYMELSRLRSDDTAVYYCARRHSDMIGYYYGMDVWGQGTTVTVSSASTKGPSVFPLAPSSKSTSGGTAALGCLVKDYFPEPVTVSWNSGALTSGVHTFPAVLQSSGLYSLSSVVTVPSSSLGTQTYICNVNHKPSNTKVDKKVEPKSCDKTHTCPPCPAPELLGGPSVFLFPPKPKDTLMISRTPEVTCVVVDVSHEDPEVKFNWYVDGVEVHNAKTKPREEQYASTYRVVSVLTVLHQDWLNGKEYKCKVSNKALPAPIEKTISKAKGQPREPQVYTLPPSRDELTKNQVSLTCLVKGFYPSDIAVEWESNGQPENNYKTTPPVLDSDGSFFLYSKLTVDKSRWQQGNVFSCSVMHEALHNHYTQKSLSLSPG
light: DIQMTQSPSSVSASVGDRVTITCRASQGISSWLAWYQQKPGKAPKLLIYAASSLQSGVPSRFSGSGSGTDFTLTISSLQPEDFATYYCQQATDFPPTFGGGTKVEIKRTVAAPSVFIFPPSDEQLKSGTASVVCLLNNFYPREAKVQWKVDNALQSGNSQESVTEQDSKDSTYSLSSTLTLSKADYEKHKVYACEVTHQGLSSPVTKSFNRGEC
notes: also called anti-CD277 antibody mAb1; anti-CD277 mAb1
As for B3, in experiment [5], the “IFN-γ release of purified CD4+ T cells stimulated with BTN-K32 cells (ELISA, fold over baseline)” value is above 2 fold; the “IFN-γ release of purified CD8+ T cells stimulated with BTN-K32 cells (ELISA, fold)” value is around 1300 fold; the “proliferation of gated CD4+ T cells within total PBMCs stimulated with anti-CD3/anti-CD28 coated BTN-K32 cells (fold change)” value is at least 1.5 fold; the “proliferation of gated CD8+ T cells within total PBMCs stimulated with anti-CD3/anti-CD28 coated BTN-K32 cells (fold change)” value was at least 1.5 fold. In experiment [5], the “proliferation of purified CD4+ T cells stimulated with BTN-K32 cells (fold change)” value was at least 1.5 fold and the “proliferation of purified CD8+ T cells stimulated with BTN-K32 cells (fold change)” value is at least 2 fold. In experiment [6], the binding result is on record as “binds”.
Take B4: the binding result in experiment [7] and in experiment [8] was “no binding” each time.

The values are drawn from patent publication US20210388089A1 (COMPASS THERAPEUTICS, published 2021).
